The subject of data set [1] is HN5 head and neck cell line. The data set can be described thus: FACS binding to cell lines. Type of data set: cell-based, human.
A further data set deals with U87MG cells. The data set can be described thus: FACS binding to cell lines. It counts as cell-based, human.
The target in a further data set is T1, de2-7 EGFR and wtEGFR (Homo sapiens, UniProt P00533, DELINS30-297G).
T1 construct: expressed in transfected cells; host or cells: NR6ΔEGFR and U87MG.ΔEGFR/U87MG.Δ2-7 (transfected ΔEGFR); U87MG.wtEGFR (transfected wtEGFR); U87MG and A431 (endogenous wtEGFR)
As to the kind of experiment: immunoprecipitation from 35S-labeled cells. It counts as binding. As to the method: Briefly, cells were labeled for 16 h with […] of Tran ^35S-Label (ICN Biomedicals, Irvine, CA) in DMEM without methionine/cysteine supplemented with 5% dialyzed FCS. After washing with PBS, cells were placed in lysis buffer (1% Triton X-100, 30 mM HEPES, 150 mM NaCl, 500 μM 4-(2-aminoethyl) benzenesulfonylfluoride (AEBSF), 150 nM aprotinin, 1 μM E-64 protease inhibitor, 0.5 mM EDTA, and 1 μM leupeptin, pH 7.4) for 1 h at 4° C. Lysates were clarified by centrifugation for 10 min at 12,000 g and then incubated with 5 μg of appropriate antibody for 30 min at 4° C. before the addition of Protein A-Sepharose. Immunoprecipitates were washed three times with lysis buffer, mixed with SDS sample buffer, separated by gel electrophoresis using a 4-20% Tris/glycine gel that was then dried, and exposed to X-ray film.

Data set [2] deals with T2, biotinylated de2-7 specific peptide (Homo sapiens, UniProt P00533, DELINS30-297G).
T2 construct: purchased Auspep, Melbourne, Australia; host or cells: synthetic (Fmoc chemistry)
As to the kind of experiment: ELISA on de2-7 peptide. It counts as binding. An excerpt: In the second assay, the biotinylated de2-7 specific peptide (Biotin-[…] (SEQ ID NO:5)) was bound to ELISA plates precoated with streptavidin (Pierce, Rockford, Illinois). Antibodies were bound and detected as in the first assay.
Background: In an ELISA, binding on a coated surface is turned into a signal by an enzyme label.

For the next data set, the target named is T3, deglycosylated sEGFR (Homo sapiens, UniProt P00533).
T3 construct: sEGFR is the recombinant extracellular domain (amino acids 1-621) of the wild-type EGFR; host or cells: CHO cells
As to the kind of experiment: immunoblot of PNGase F treated sEGFR. Type of data set: binding. As to the method:
To determine if carbohydrate structures are directly involved in the mAb806 epitope, the recombinant sEGFR expressed in CHO cells was treated with PNGase F to remove N-linked glycosylation.
On the technique in general: Immunoblotting shows a protein as a band on a membrane.

The test system of a further data set is U87MG.de2-7 cells. The data set can be described thus: ADCC assay. Type of data set: cell-based, human. Particulars: E:T ratio 50:1.
In another data set the test system is U87MG.DK cells. As to the kind of experiment: FACS binding to cell lines. It counts as cell-based, human. As to the method: Stained cells were analyzed with a FACS Calibur™ using Cell Quest™ software (Becton-Dickinson PharMingen). […] 1. Mouse IgG2a or IgG2b was used as an isotype control.
A general note: In flow cytometry, cells or beads pass a laser one at a time.

The test system of the next data set is A431 cells. As to the kind of experiment: FACS binding to cell lines. It counts as cell-based, human.
The test system of data set [3] is U87MG.wtEGFR brain xenografts. The data set can be described thus: systemic treatment of intracranial xenografts. Set-up: species or system nude mice. To be noted: mouse, in vivo.
Experimental: (§1) U87MG.ΔEGFR cells (1×10^5) or 5×10^5 LN-Z308.ΔEGFR, A1207.ΔEGFR, U87MG, U87MG.DK, and U87MG.wtEGFR cells in 5 μl of PBS were implanted into the right corpus stratum of nude mice brains as described previously (Mishima et al. (2000) A peptide derived from the non-receptor binding region of urokinase plasminogen activator inhibits glioblastoma growth and angiogenesis in vivo in combination with cisplatin. Proc. Natl. Acad. Sci. U.S.A. 97, 8484-8489).
The target in data set [4] is T4, EGFR from U87MG.wtEGFR and A431 cells (Homo sapiens, UniProt P00533).
T4 construct: expressed in transfected cells; host or cells: U87MG.wtEGFR (transfected with wtEGFR) and A431 (endogenous, amplified gene)
The data set can be described thus: immunoprecipitation and Endo H digestion. It counts as binding. As to the method:
This possibility was tested by immunoprecipitating the EGFR from different cells lines labelled overnight with ^35S methionine/cysteine and then subjecting the resultant precipitates to Endoglycosidase H (Endo H) digestion. This enzyme preferentially removes high mannose type carbohydrates (i.e. immature glycosylation) from proteins while leaving complex carbohydrates (i.e. mature glycosylation) intact.

A further data set relates to A431 xenografts. To be noted: mouse, in vivo.
Another data set addresses T5, wtEGFR on A431 cells (Homo sapiens, UniProt P00533).
T5 construct: A431 cells are human squamous carcinoma cells and express high levels of wtEGFR; host or cells: A431 human squamous (epidermoid) carcinoma cells
As to the kind of experiment: Scatchard analysis on A431 cells. It counts as binding.

The next data set deals with U87MG xenografts. The data set can be described thus: established xenograft model. To be noted: 1 mg per injection. It counts as in vivo, nude mice. As to the method: Tumor cells (3×10^6) in […] of PBS were inoculated subcutaneously into both flanks of 4-6 week old female nude mice (Animal Research Centre, Western Australia, Australia). […] Treatment was continued for a total of 6 doses, 3 times per week for 2 weeks. In the established model, treatment was started when tumors had reached a mean volume of 65±6.42 mm^3 (U87MG.Δ2-7), 84±9.07 mm^3 (U87MG), 73±7.5 mm^3 (U87MG.wtEGFR) or 201±19.09 mm^3 (A431 tumors). Tumor volume in mm^3 was determined using the formula (length×width^2)/2, where length was the longest axis and width the measurement at right angles to the length (Clark et al. (2000) Therapeutic efficacy of anti-Lewis (y) humanized 3S 193 radioimmunotherapy in a breast cancer model: enhanced activity when combined with Taxol chemotherapy. Clin. Cancer Res. 6, 3621-3628). Data was expressed as mean tumor volume±S.E. for each treatment group. Statistical analysis was performed at given time points using Student's t-test. Animals were euthanized when the xenografts reached an approximate volume of 1.5 cm^3 and the tumors excised for histological examination. This research project was approved by the Animal Ethics Committee of the Austin and Repatriation Medical Centre. […]

A further data set deals with normal tissues. As to the kind of experiment: immunohistochemistry of normal tissue. Set-up: species or system human. As to the method: Immunohistochemical analysis was performed using […] sections of fresh frozen tissue applied to histology slides and fixed for 10 minutes in cold acetone. Bound primary antibody was detected with biotinylated horse anti-mouse antibody followed by an avidin-biotin-complex reaction. Diaminobenzidine tetra hydrochloride (DAB) was used as chromogen. The extent of the immunohistochemical reactivity in tissues was estimated by light microscopy and graded according to the number of immunoreactive cells in 25% increments as follows: • Focal=less than 5% • +=5-25% • ++=25-50% • +++=50-75% • ++++=>75%
There was some variable staining present in tonsils with mAb806 that was restricted to the basal cell layer of the epidermis and mucosal squamous cells of the epithelium. In placenta, occasional immunostaining of the trophoblast epithelium was observed. […] All tissues were positive for the wtEGFR as evidenced by the universal staining seen with the 528 antibody (Table 3).

For a further data set, the system named is U87MG brain xenografts. As to the kind of experiment: systemic treatment of intracranial xenografts. Set-up: species or system nude mice. Particulars: mouse, in vivo.

Where “and” joins values, the source holds several entries; their conditions need not be identical. Equal values may be shown once. Entries after “also recorded” stand apart in the source; their conditions may differ.

One molecule from patent US20240117073A1, “METHODS OF TREATING NEOPLASTIC ASTROCYTOMA” (Ludwig Institute for Cancer Research Ltd., priority 2009, published 2024) can be followed below.

Experimental for A431 xenografts: U87MG or A431 cells were injected on one side 7-10 days before U87MG.Δ2-7 cells were injected on the other side because of the faster growth rate observed for de2-7 EGFR expressing xenografts. Antibodies were radiolabeled and assessed for immunoreactivity as described above and were injected into mice by the retro-orbital route when tumors were 100-200 mg in weight. […] Unless indicated, groups of 5 mice were sacrificed at various time points post-injection and blood obtained by cardiac puncture. The tumors, liver, spleen, kidneys and lungs were obtained by dissection. All tissues were weighed and assayed for ^125I and ^131I activity using a dual-channel counting Window. Data was expressed for each antibody as % ID/g tumor determined by comparison to injected dose standards or converted into tumor to blood/liver ratios (i.e. % ID/g tumor divided by % ID/g blood or liver). Differences between groups were analyzed by Student's t-test.
Experimental for U87MG brain xenografts: as §1
Experimental for U87MG cells: Briefly, cells were labelled with the relevant antibody (10 μg/ml) followed by fluorescein-conjugated goat anti-mouse IgG (1:100 dilution; Calbiochem San Diego, CA, USA; Becton-Dickinson PharMingen, San Diego, CA, US) as described previously (Nishikawa et al., 1994). FACS data was obtained on a Coulter Epics Elite ESP by observing a minimum of 5,000 events and analyzed using EXPO (version 2) for Windows.
Stained cells were analyzed with a FACS Calibur™ using Cell Quest™ software (Becton-Dickinson PharMingen). […] Mouse IgG2a or IgG2b was used as an isotype control.
Cells (1 3 10 6) were incubated with 5 μg/ml of the appropriate antibody or an isotype-matched negative control in PBS containing 1% HSA for 30 min at 4° C. After three washes with PBS/1% HSA, cells were incubated an additional 30 min at 4° C. with FTTC-coupled goat anti-mouse antibody (1:100 dilution; Calbiochem, San Diego, CA). After three subsequent washes, cells were analyzed on an Epics Elite ESP (Beckman Coulter, Hialeah, FL) by observing a minimum of 20,000 events and analyzed using EXPO (version 2) for Windows.
Experimental for U87MG.de2-7 cells: PBMCs were isolated from healthy volunteer donor blood. Heparinized whole blood was fractionated by density centrifugation on Ficoll-Hypaque (ICN Biomedical Inc., Ohio, USA). PBMC fractions was collected and washed three times with RPMI+1640 supplemented with 100 U/ml penicillin and 100 μg/ml streptomycin, 2 mM L-glutamine, containing 5% heat-inactivated FCS.
CDC and ADCC assays were performed by a modification of a previously published method (Nelson, D. L. et al. (1991) In: J. E. Colignan, A. M. Kruisbeek, D. D. Margulies, E. M. Shevach, and W. Strober (eds.), Current Protocols in Immunology, pp. 7.27.1. New York: Greene Publishing Wiley Interscience). Briefly, 5×10^6 target U87MG.de2-7 and A431cells were labeled with 50 μCi^51Cr (Geneworks, Adelaide, Australia) per 1×10^6 cells and incubated for 2 hr at 37° C. The cells were then washed three time with PBS (0.05M, pH 7.4) and a fourth wash with culture medium. […]
In the first assay, labelled target cells were plated with the effector cells in 96-well “U” bottom microplates (NUNC, Roskilde, Denmark) at effector/target (E:T) cell ratios of 50:1. […] In both assays, micotitre plates were incubated at 37° C. for 4 hours, then 50 μl supernatant was harvested from each well and released ^51Cr was determined by gamma counting (Cobra II automated Gamma Counter, Canberra Packard, Melbourne, Australia). […]
Experimental for wtEGFR on A431 cells: All binding assays were performed in 1% HSA/PBS on 1-2×10^6 live U87MG.Δ2-7 or A431 cells for 90 min at 4° C. with gentle rotation. A set concentration of 10 ng/ml ^125I-labeled antibody was used in the presence of increasing concentrations of the appropriate unlabeled antibody. Non-specific binding was determined in the presence of 10,000-fold excess of unlabeled antibody. […] After the incubation was completed, cells were washed and counted for bound ^125I-labeled antibody using a COBRA II gamma counter (Packard Instrument Company, Meriden, CT, USA).

B1: mAb806: murine monoclonal antibody recognizing de2-7 EGFR and amplified EGFR; VH SEQ ID NO:2, VL SEQ ID NO:4 (antibody, listed as Mus musculus, V domains shown)
VH: MRVLILLWLFTAFPGVLSDVQLQESGPSLVKPSQSLSLTCTVTGYSITSDFAWNWIRQFPGNKLEWMGYISYSGNTRYNPSLKSRISITRDTSKNQFFLQLNSVTIEDTATYYCVTAGRGFPYWGQGTLVTVSA
VL: MVSTAQFLAFLLLWFPGARCDILMTQSPSSMSVSLGDTVSITCHSSQDINSNIGWLQQRPGKSFKGLIYHGTNLDDEVPSRFSGSGSGADYSLTISSLESEDFADYYCVQYAQFPWTFGGGTKLEIKR
Take B1: the FACS staining entry is “clearly stained both cell lines but at a lower level” in [1]; “binding levels similar to the control antibody; also recorded: not with U87MG cells” in the data set on U87MG cells; “reacted intensely” in the data set on U87MG.DK cells; “Low, but highly reproducible, binding” in the data set on A431 cells. Further, the “immunoprecipitated EGFR bands” value with de2-7 EGFR and wtEGFR was “immunoprecipitated the two de2-7 EGFR bands, the wtEGFR was completely absent; also recorded: immunoprecipitated a single band corresponding to the wtEGFR from both U87MG.wtEGFR and A431 cells”. Besides, the “binding to unique de2-7 EGFR peptide” value in [2] is “Neither mAb806 nor the 528 antibody bound to the peptide”. Besides, the “binding to deglycosylated sEGFR” value in the data set with deglycosylated sEGFR is on record as “clearly bound the deglycosylated material”. In addition, the ADCC entry with U87MG.de2-7 cells is “lack of parental murine mAb806 immune effector function”. Moreover, the effect on survival result was “slightly extended” in data set [3] and “did not extend survival” in the data set on U87MG brain xenografts. This molecule had a median survival in [3] of 23 days. In data set [4], the “Endo H sensitivity of precipitated EGFR” value was “sensitive to Endo H”. Further, in the data set on A431 xenografts, the “uptake expressed as % ID/g tumor” value was “comparatively low”. Besides, in the data set with wtEGFR on A431 cells, the “receptors (binding sites) per cell” value was 2.4×10^5 receptors per cell and 2.3×10^5 receptors per cell. The molecule also had an affinity with wtEGFR on A431 cells (average of three experiments) of 9.5e+07 M⁻¹. Besides, the “effect on xenograft growth” value in the data set on U87MG xenografts is “no effect”. In addition, the reactivity entry in the data set on normal tissues (Skin) and in the data set on normal tissues (Tonsil) was “− occ. weak reactivity” throughout.
